{"source": "patent US20180179292A1", "about": "“RKIP AGONISM IN THE TREATMENT AND PREVENTION OF HEART FAILURE” (Leibniz-Institut für analytische Wissenschaften- ISAS-e.V., priority 2015, published 2018)", "key": {"[1]": {"system": "neonatal rat cardiomyocytes (NRCM)", "assay": "Contractile activity of neonatal rat cardiomyocytes", "format": "cell-based", "conditions": "in the presence of isoprenaline (50 nM), 33° C., beats per minute", "procedure": "NRCM were cultured for 24 h and transduced as indicated with a control virus (LacZ) or a virus encoding RKIP-wt and/or treated with rituximab as indicated. The spontaneous contractions were measured at 33° C. for one minute and normalized for each experiment to LacZ under unstimulated conditions. NRCM were then stimulated with isoproterenol (50 nM) and after 2 min contractions were counted again. SEM; *, p<0.0001, n=5\nNeonatal rat cardiomyocytes were isolated as described (Lorenz et al. Nature 2003, 426:574-579; Vidal et al., Cardiovasc. Res. 2012, 96:255-264). Cardiomyocytes were transduced by adenoviruses or treated with indicated antibodies. To monitor the contractile activity of cardiomyocytes, live cells were examined on a Zeiss Axiovert 135 microscope."}, "[2]": {"system": "neonatal rat cardiac fibroblasts", "assay": "[3H]Thymidine incorporation in neonatal rat fibroblasts", "format": "cell-based", "conditions": "adenovirally transduced Flag-RKIP, 0.1% FCS, 96 h"}}, "data": [{"molecule": "RKIP: Raf kinase inhibitor protein, overexpressed in cells by adenoviral transduction (protein, UniProt P30086 2-187, looked up, Flag tag) Phosphatidylethanolamine-bindi …: PVDLSKWSGPLSLQEVDEQPQHPLHVTYAGAAVDELGKVLTPTQVKNRPTSISWDGLDSGKLYTLVLTDPDAPSRKDPKYREWHHFLVVNMKGNDISSGTVLSDYVGSGPPKGTGLHRYVWLVYEQDRPLKCDEPILSNRSGDHRGKFKVASFRKKYELRAPVAGTCYQAEWDDYVPKLYEQLSGK", "values": [{"measurement": "NRCM contractility", "setting": "[1]", "value": "increased NRCM contractility"}, {"measurement": "proliferation ([3H]thymidine incorporation)", "setting": "[2]", "value": "minor but significant anti-proliferative effect"}]}]}
